Assay results taken from publication PMC5014086 (2016).
Like-named read-outs stand apart in the source and are kept apart here.

Tests used:
Experiment in all cases: SPR
LRP6_(PE1PE2) fragment = biological target: T1, LRP6_(PE1PE2) fragment; conditions: chain shown with the change; 25 µM LRP6PE1PE2 (highest concentration of the titration); parent: est. 100; read off a plot
T1 chain: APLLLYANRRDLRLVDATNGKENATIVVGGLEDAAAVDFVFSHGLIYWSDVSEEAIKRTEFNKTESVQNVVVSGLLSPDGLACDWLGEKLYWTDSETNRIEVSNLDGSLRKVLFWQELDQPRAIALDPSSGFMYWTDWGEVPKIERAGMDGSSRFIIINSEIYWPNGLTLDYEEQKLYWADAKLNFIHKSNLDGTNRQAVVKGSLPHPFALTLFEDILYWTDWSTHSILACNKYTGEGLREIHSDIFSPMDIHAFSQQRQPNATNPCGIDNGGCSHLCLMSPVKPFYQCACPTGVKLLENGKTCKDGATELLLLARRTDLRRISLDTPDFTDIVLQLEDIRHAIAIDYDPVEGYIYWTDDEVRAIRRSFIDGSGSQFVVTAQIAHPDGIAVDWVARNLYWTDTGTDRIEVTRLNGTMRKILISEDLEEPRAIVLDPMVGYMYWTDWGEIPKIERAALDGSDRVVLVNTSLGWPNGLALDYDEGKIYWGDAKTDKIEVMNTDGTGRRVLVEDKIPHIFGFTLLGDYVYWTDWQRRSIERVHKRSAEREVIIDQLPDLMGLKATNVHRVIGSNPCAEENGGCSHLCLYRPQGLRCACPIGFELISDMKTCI

[1] = biological target: T2, wild-type KRM1ECD as immobilised for SPR (human, UniProt Q96MU8 21-392)
T2 chain: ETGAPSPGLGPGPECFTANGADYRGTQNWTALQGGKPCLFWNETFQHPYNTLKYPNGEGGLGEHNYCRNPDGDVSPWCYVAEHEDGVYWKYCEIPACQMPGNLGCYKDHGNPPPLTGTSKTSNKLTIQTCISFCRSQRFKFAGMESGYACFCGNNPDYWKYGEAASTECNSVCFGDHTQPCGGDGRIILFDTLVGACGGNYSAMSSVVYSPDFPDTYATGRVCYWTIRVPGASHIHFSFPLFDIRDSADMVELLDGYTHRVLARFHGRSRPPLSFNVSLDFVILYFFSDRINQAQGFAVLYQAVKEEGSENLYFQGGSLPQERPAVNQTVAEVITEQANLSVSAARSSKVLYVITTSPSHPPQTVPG

[2] = biological target: T3, GlycoCUB mutant of KRM1ECD (309NQA311→NQS, N-glycan at N309) (human, UniProt Q96MU8 21-392, 309NQA311→NQS, additional N-glycan at N309)
T3 sequence: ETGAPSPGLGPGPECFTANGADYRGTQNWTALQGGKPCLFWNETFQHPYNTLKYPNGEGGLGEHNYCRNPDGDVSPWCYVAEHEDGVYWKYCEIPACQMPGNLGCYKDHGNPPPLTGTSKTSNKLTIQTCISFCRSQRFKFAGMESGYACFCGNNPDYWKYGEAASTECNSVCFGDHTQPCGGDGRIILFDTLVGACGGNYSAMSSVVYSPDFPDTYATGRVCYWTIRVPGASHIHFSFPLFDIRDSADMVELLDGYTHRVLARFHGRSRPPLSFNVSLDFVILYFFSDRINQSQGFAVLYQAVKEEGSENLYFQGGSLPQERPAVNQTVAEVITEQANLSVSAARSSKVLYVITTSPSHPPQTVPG

[3] = biological target: T2, wild-type KRM1ECD as immobilised for SPR

B1: wild-type KRM1ECD as immobilised for SPR, Q96MU8 A311S (protein)
chain: ETGAPSPGLGPGPECFTANGADYRGTQNWTALQGGKPCLFWNETFQHPYNTLKYPNGEGGLGEHNYCRNPDGDVSPWCYVAEHEDGVYWKYCEIPACQMPGNLGCYKDHGNPPPLTGTSKTSNKLTIQTCISFCRSQRFKFAGMESGYACFCGNNPDYWKYGEAASTECNSVCFGDHTQPCGGDGRIILFDTLVGACGGNYSAMSSVVYSPDFPDTYATGRVCYWTIRVPGASHIHFSFPLFDIRDSADMVELLDGYTHRVLARFHGRSRPPLSFNVSLDFVILYFFSDRINQSQGFAVLYQAVKEEGSENLYFQGGSLPQERPAVNQTVAEVITEQANLSVSAARSSKVLYVITTSPSHPPQTVPG
LRP6_(PE1PE2) fragment
  response (response units): -20

B2: LRP6_(PE1PE2) fragment (domain or fragment)
chain: APLLLYANRRDLRLVDATNGKENATIVVGGLEDAAAVDFVFSHGLIYWSDVSEEAIKRTEFNKTESVQNVVVSGLLSPDGLACDWLGEKLYWTDSETNRIEVSNLDGSLRKVLFWQELDQPRAIALDPSSGFMYWTDWGEVPKIERAGMDGSSRFIIINSEIYWPNGLTLDYEEQKLYWADAKLNFIHKSNLDGTNRQAVVKGSLPHPFALTLFEDILYWTDWSTHSILACNKYTGEGLREIHSDIFSPMDIHAFSQQRQPNATNPCGIDNGGCSHLCLMSPVKPFYQCACPTGVKLLENGKTCKDGATELLLLARRTDLRRISLDTPDFTDIVLQLEDIRHAIAIDYDPVEGYIYWTDDEVRAIRRSFIDGSGSQFVVTAQIAHPDGIAVDWVARNLYWTDTGTDRIEVTRLNGTMRKILISEDLEEPRAIVLDPMVGYMYWTDWGEIPKIERAALDGSDRVVLVNTSLGWPNGLALDYDEGKIYWGDAKTDKIEVMNTDGTGRRVLVEDKIPHIFGFTLLGDYVYWTDWQRRSIERVHKRSAEREVIIDQLPDLMGLKATNVHRVIGSNPCAEENGGCSHLCLYRPQGLRCACPIGFELISDMKTCI
[1]
  Kd: 18900 nM

B3: full-length DKK1 (ligand)
chain: TLNSVLNSNAIKNLPPPLGGAAGHPGSAVSAAPGILYPGGNKYQTIDNYQPYPCAEDEECGTDEYCASPTRGGDAGVQICLACRKRRKRCMRHAMCCPGNYCKNGICVSSDQNHFRGEIEETITESFGNDHSTLDGYSRRTTLSSKMYHTKGQEGSVCLRSSDCASGLCCARHFWSKICKPVLKEGQVCTKHRRKGSHGLEIFQRCYCGEGLSCRIQKDHHQASNSSRLHTCQRH
[2]
  Kd: 1300 nM
[3]
  Kd: 1200 nM

B4: SUMO-DKK1_(Linker-CRD2), SUMO fusion as SPR analyte (domain or fragment)
chain: SDQNHFRGEIEETITESFGNDHSTLDGYSRRTTLSSKMYHTKGQEGSVCLRSSDCASGLCCARHFWSKICKPVLKEGQVCTKHRRKGSHGLEIFQRCYCGEGLSCRIQKDHHQASNSSRLHTCQRH
[3]
  Kd: 400 nM
